Laboratory results: the supplement of paper PMC7125110
± gives the standard error. For some assays here: Fewer inactive variants are shown than the library holds.

B1: glmS ribozyme (parent)
chain: AUAAAAGCGCCAGAACUACAGAAAUGUAGUUGACGAGGAGGAGGUUUAUCGAAUUUUCGGCGGAUGCCUCCAAA

How the values were obtained:
Conditions in all cases: with glucosamine-6-phosphate
[1] = variants of: B1; assay: kcat; higher = faster cleavage; RNA array
In short: (§1)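 kobs was derived by fitting per-tile medians to one- or two-exponential decays after normalising signals to baseline and to non-cleaving reference variants. Those signals came from barcoded ribozyme variants transcribed in situ by E. coli RNA polymerase on sequenced MiSeq chips, followed through a hybridised Cy3 probe at 37 °C and imaged over ~14 h. Glucosamine-6-phosphate (40 μM to 10 mM) in HEPES/KCl/Mg(OAc)2 buffer was flowed in. Weighted Michaelis–Menten fits across concentrations then gave kcat and KM.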

[2] = variants of: B1; assay: self-cleavage kobs at 640 uM GlcN6P; higher = faster cleavage; RNA array
In short: as §1

[3] = variants of: B1; assay: self-cleavage kobs at 2500 uM GlcN6P; higher = faster cleavage; RNA array
In short: as §1

[4] = variants of: B1; assay: self-cleavage kobs at 10000 uM GlcN6P; higher = faster cleavage; RNA array
In short: as §1

[5] = variants of: B1; assay: KM; higher = weaker cofactor use; RNA array
In short: as §1

[6] = variants of: B1; assay: self-cleavage kobs at 160 uM GlcN6P; higher = faster cleavage; RNA array
In short: as §1

[7] = variants of: B1; assay: self-cleavage kobs at 40 uM GlcN6P; higher = faster cleavage; RNA array
In short: as §1

Variant	kcat [1]	self-cleavage kobs at 640 uM GlcN6P [2]	self-cleavage kobs at 2500 uM GlcN6P [3]	self-cleavage kobs at 10000 uM GlcN6P [4]	KM [5]	self-cleavage kobs at 160 uM GlcN6P [6]	self-cleavage kobs at 40 uM GlcN6P [7]
U47G A53G U57C C68U	9.73e-05 ± 3.2e-05 s⁻¹	3.09e-05 ± 1.2e-05 s⁻¹	3.84e-05 ± 1.3e-05 s⁻¹	8.44e-05 ± 1.8e-05 s⁻¹			
G44U U54A	0.000233 ± 6.1e-05 s⁻¹	0.000111 ± 3.6e-05 s⁻¹	0.000132 ± 4.1e-05 s⁻¹	0.000252 ± 6.1e-05 s⁻¹			
G32A C67U	0.000858 ± 0.0002 s⁻¹	0.00023 ± 2.1e-05 s⁻¹	0.000374 ± 4.7e-05 s⁻¹	0.000854 ± 8.5e-05 s⁻¹	1940 ± 760 µM	7.5e-05 ± 1.5e-05 s⁻¹	
C11G G37U	1.74e-05 ± 6.6e-06 s⁻¹		< 1e-05 s⁻¹	< 1e-05 s⁻¹			< 1e-05 s⁻¹
C58G C61A	1.85e-05 ± 4e-06 s⁻¹						
A64G U65G G66U C70G	2.23e-05 ± 6.3e-06 s⁻¹						
U46C C67G	0.000658 ± 5.5e-05 s⁻¹	0.000154 ± 5.6e-05 s⁻¹	0.000431 ± 6.7e-05 s⁻¹	0.000561 ± 6.7e-05 s⁻¹	1560 ± 320 µM	6.94e-05 ± 1.9e-05 s⁻¹	
G35C G40U	< 1e-05 s⁻¹	< 1e-05 s⁻¹	< 1e-05 s⁻¹	< 1e-05 s⁻¹			< 1e-05 s⁻¹
A64G C71U	0.00692 ± 0.0014 s⁻¹	0.00177 ± 0.00015 s⁻¹	0.00386 ± 0.00036 s⁻¹	0.00552 ± 0.00084 s⁻¹	2040 ± 540 µM	0.000417 ± 4.5e-05 s⁻¹	0.000158 ± 1.6e-05 s⁻¹
C58A U65C	6.66e-05 ± 7.6e-06 s⁻¹			4.42e-05 ± 2.2e-05 s⁻¹	5030 ± 1300 µM		
G13U C68G	2.36e-05 ± 6.5e-06 s⁻¹						
U30C A53U	0.000197 ± 3.1e-05 s⁻¹	5.5e-05 ± 1e-05 s⁻¹	0.000158 ± 1.5e-05 s⁻¹	0.000159 ± 1.8e-05 s⁻¹	1290 ± 540 µM		
C70G C71A	5.66e-05 ± 1.4e-05 s⁻¹	7.38e-05 ± 1.2e-05 s⁻¹	6.86e-05 ± 1.8e-05 s⁻¹	3.7e-05 ± 9.8e-06 s⁻¹		8.13e-05 ± 1.8e-05 s⁻¹	
A6G U30A	5.86e-05 ± 1.4e-05 s⁻¹		3.73e-05 ± 1e-05 s⁻¹	4.4e-05 ± 1.9e-05 s⁻¹			
C67G	0.00185 ± 0.00017 s⁻¹	0.00046 ± 4e-05 s⁻¹	0.00108 ± 3.9e-05 s⁻¹	0.00145 ± 3.7e-05 s⁻¹	2390 ± 300 µM	0.000109 ± 2.8e-06 s⁻¹	3.28e-05 ± 1e-06 s⁻¹
A15G A64C	0.000162 ± 9.6e-06 s⁻¹	3.75e-05 ± 6.6e-06 s⁻¹	9.56e-05 ± 1.6e-05 s⁻¹	0.00013 ± 2.2e-05 s⁻¹	2040 ± 230 µM		
C50G C58A G62C G63C C70A	0.000121 ± 3.1e-05 s⁻¹	0.000166 ± 4.1e-05 s⁻¹	0.000239 ± 5.5e-05 s⁻¹	9.95e-05 ± 1.6e-05 s⁻¹		0.000204 ± 4.8e-05 s⁻¹	4.49e-05 ± 1.7e-05 s⁻¹

Variant	kcat [1]	self-cleavage kobs at 640 uM GlcN6P [2]	self-cleavage kobs at 2500 uM GlcN6P [3]	self-cleavage kobs at 10000 uM GlcN6P [4]	KM [5]	self-cleavage kobs at 160 uM GlcN6P [6]	self-cleavage kobs at 40 uM GlcN6P [7]
A12G U69A	0.000112 ± 2.3e-05 s⁻¹	4.87e-05 ± 2.1e-05 s⁻¹	0.000171 ± 5.2e-05 s⁻¹	9.85e-05 ± 1.9e-05 s⁻¹			
A6C U47A	0.0001 ± 5.6e-06 s⁻¹			6.15e-05 ± 1.4e-05 s⁻¹	6300 ± 770 µM		
A53U C70G	0.000152 ± 2.3e-05 s⁻¹	0.000133 ± 1.5e-05 s⁻¹	0.000136 ± 2.3e-05 s⁻¹	0.000142 ± 2.6e-05 s⁻¹	168 ± 74 µM	6.88e-05 ± 7.7e-06 s⁻¹	8.15e-05 ± 2.5e-05 s⁻¹
U31G C67A	0.00185 ± 0.00043 s⁻¹	0.000858 ± 0.00013 s⁻¹	0.00123 ± 0.00024 s⁻¹	0.00286 ± 0.00065 s⁻¹	740 ± 270 µM	0.000285 ± 6.9e-05 s⁻¹	0.000107 ± 1.8e-05 s⁻¹
U54A A64G	0.0348 ± 0.011 s⁻¹	0.00654 ± 0.0014 s⁻¹		0.029 ± 0.0072 s⁻¹	2310 ± 830 µM	0.00313 ± 0.0007 s⁻¹	0.00058 ± 7.4e-05 s⁻¹
A12U G13C	< 1e-05 s⁻¹	< 1e-05 s⁻¹				< 1e-05 s⁻¹	< 1e-05 s⁻¹
G13C C16U	0.0002194 ± 1.1e-06 s⁻¹		8.19e-05 ± 2.5e-05 s⁻¹	0.000155 ± 1.9e-05 s⁻¹	4190 ± 58 µM		
G29A G40A	0.000354 ± 5.1e-05 s⁻¹	0.000154 ± 2.9e-05 s⁻¹	0.000222 ± 3.7e-05 s⁻¹	0.000353 ± 7.2e-05 s⁻¹	1090 ± 350 µM	3.78e-05 ± 1.7e-05 s⁻¹	
A33U G40C	5.14e-05 ± 7.9e-06 s⁻¹						
G43U A53G	4.73e-05 ± 1.7e-06 s⁻¹		3.6e-05 ± 1.5e-05 s⁻¹		793 ± 120 µM		< 1e-05 s⁻¹
A14C G26A	0.00194 ± 0.00022 s⁻¹	0.000887 ± 0.00023 s⁻¹	0.00142 ± 0.00041 s⁻¹	0.00166 ± 0.00037 s⁻¹	1030 ± 190 µM		6.7e-05 ± 1.7e-05 s⁻¹
C11A G66U	< 1e-05 s⁻¹	< 1e-05 s⁻¹	< 1e-05 s⁻¹		58.7 ± 26 µM		< 1e-05 s⁻¹
A6U G13C C70G	2.43e-05 ± 8.6e-06 s⁻¹						
C10U G32U	4.97e-05 ± 3.1e-06 s⁻¹		5.05e-05 ± 1.2e-05 s⁻¹	4.67e-05 ± 6.1e-06 s⁻¹		< 1e-05 s⁻¹	
G66U C71A	0.000234 ± 2.4e-05 s⁻¹	8.54e-05 ± 8.7e-06 s⁻¹	0.000205 ± 2.4e-05 s⁻¹	0.000202 ± 1.9e-05 s⁻¹	1020 ± 250 µM	3.4e-05 ± 1e-05 s⁻¹	
G13A C67A	0.000273 ± 6.7e-05 s⁻¹	2.62e-05 ± 8.7e-06 s⁻¹	0.000133 ± 2.4e-05 s⁻¹	0.000181 ± 2.5e-05 s⁻¹	4490 ± 2100 µM		
